# Results as given in patent US20220372138A1 (IOMX THERAPEUTICS, published 2022).
# Changes are numbered by the printed parent chain. Like-named read-outs stand apart in the source and are kept apart here.
# T1: human IGSF11 (VSIG3) ECD, His-tagged (human, UniProt Q5DX21 23-241)
# T1 construct: in part bought (SinoBiological 13094-H08H); also called HIS-IGSF11; IGSF11-HIS; not shown: His tag
# T1 sequence: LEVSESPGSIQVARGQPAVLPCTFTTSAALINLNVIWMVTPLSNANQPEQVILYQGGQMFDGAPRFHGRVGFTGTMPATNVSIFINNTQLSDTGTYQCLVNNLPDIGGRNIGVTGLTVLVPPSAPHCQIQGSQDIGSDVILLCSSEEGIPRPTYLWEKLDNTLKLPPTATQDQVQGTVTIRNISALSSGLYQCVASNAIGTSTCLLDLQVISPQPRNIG
# T2: human IGSF11 (VSIG3) expressed on cells (human, UniProt Q5DX21 23-431)
# T2 sequence: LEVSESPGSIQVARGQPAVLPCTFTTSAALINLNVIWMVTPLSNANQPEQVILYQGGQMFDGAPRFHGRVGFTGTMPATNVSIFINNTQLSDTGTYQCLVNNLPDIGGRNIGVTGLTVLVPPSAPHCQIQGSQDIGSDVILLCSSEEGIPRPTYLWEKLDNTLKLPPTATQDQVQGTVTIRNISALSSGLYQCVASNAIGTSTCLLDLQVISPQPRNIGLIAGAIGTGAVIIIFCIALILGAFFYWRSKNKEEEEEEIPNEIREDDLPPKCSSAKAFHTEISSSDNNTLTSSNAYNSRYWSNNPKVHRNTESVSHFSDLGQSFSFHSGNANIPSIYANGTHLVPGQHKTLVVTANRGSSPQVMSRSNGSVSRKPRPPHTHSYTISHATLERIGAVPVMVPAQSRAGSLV
# T3: IgC2 domain of human IGSF11 fused to murine IgG2a Fc (human, UniProt Q5DX21 137-241)
# T3 construct: not shown: murine IgG2a Fc-region
# T3 sequence: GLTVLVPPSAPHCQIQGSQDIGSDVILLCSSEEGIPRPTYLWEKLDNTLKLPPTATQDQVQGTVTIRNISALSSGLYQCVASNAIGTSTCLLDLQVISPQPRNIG
# T4: full-length ECD of human IGSF11 fused to murine Fc (human, UniProt Q5DX21 23-241)
# T4 construct: also called Fc-fusion IGSF11 ECD; not shown: murine Fc
# T4 sequence: T1 sequence
# T5: murine IGSF11 expressed on cells (mouse, UniProt P0C673 23-428)
# T5 construct: MC38-IGSF11, CT26-IGSF11, MC38-wt (naturally expresses murine IGSF11)
# T5 sequence: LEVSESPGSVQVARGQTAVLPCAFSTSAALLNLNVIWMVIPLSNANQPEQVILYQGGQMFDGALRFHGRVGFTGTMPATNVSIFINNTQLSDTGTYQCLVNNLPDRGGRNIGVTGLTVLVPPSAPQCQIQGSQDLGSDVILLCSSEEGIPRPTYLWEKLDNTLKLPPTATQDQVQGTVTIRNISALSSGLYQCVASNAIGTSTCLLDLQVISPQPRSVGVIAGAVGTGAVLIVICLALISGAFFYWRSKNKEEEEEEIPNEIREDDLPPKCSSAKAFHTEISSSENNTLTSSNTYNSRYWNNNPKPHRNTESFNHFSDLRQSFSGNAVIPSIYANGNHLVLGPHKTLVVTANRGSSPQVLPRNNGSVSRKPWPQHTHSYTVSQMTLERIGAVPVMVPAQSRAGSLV
# T6: extracellular domain (ECD) of human IGSF11 (VSIG3), recombinant (human, UniProt Q5DX21 23-241)
# T6 construct: biotinylated where captured on streptavidin; tags of the reagent not always stated; also called IGSF11 (ECD domain); ECD-IGSF11
# T6 sequence: T1 sequence
# T7: IgV domain of human IGSF11 fused to murine IgG2a Fc (human, UniProt Q5DX21 23-143)
# T7 construct: not shown: murine IgG2a Fc-region
# T7 sequence: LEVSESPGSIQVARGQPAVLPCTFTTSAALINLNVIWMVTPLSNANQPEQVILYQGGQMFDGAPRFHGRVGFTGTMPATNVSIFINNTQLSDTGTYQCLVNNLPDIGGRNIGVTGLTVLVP
# T8: ECD of cynomolgus monkey IGSF11, recombinant biotinylated (cynomolgus monkey, UniProt Q5DX21 23-241 (human entry))
# T8 construct: whole entry named
# T8 chain: T1 sequence with P17T, I83V, A185T, S187T
# B1: B-004 (chain-swapped IgG1) (antibody, V domains shown)
# VH: EVQLLESGGGLIQPGGSLRLSCAVSGFTVSSNYMSWVRQAPGKGLEWVSVIYSGGSTYYADSVKGRFTISRDNSKNTLYLQMNSLRAEDTAVYYCARGNPYYYGDLQVNFDYWGQGTLVTVSS
# VL: QAVVTQEPSLTVSPGGTVTLTCASSTGAVTSGYYPNWFQQKPGQAPRPLIYSTSNKHSWTPARFSGSLLGGKAALTLSGVQPDDEAEYYCLLYYGGDWVFGGGTKLTVL
# notes: human IgG1 format; also called B4
# B2: B-006 (chain-swapped IgG1) (antibody, V domains shown)
# VH: B1 VH with L5V, V24A
# VL: B1 VL with G16E, K41R, P48A, H57D, D83E, D97A
# notes: human IgG1 format; also called B6
# B3: B-007 (chain-swapped IgG1) (antibody, V domains shown)
# VH: B1 VH with L5V, V24A
# VL: B1 VL with G32A, P48A, D83E, E87D, D97A
# notes: human IgG1 format; also called B7
# B4: B-008 (chain-swapped IgG1) (antibody, V domains shown)
# VH: B1 VH with L5V, V24A
# VL: B1 VL with L20P, A23G, Y33N, Y34L, P48A, F64I, D83E, D97A
# notes: human IgG1 format; also called B8
# B5: A-027 (IgG1 format) (antibody, V domains shown)
# VH: QVQLVQSGAEVKKPGSSVKVSCKASGGTFSSYAISWVRQAPGQGLEWMGGIIPIFGTANYAQKFQGRVTITADKSTSTAYMELSSLRSEDTAVYYCARARGSTWGYFDYWGQGTLVTVSS
# VL: EIVLTQSPASLSLSPGERVTLSCRASQSVSNYLAWYQQKPGQAPRLLIYDASNRATGIPARFSGSGSGTDFTLTISSLEPEDFAVYYCQQRDNWPLTFGGGTKVEIK
# notes: human IgG1 format
# B6: A-022 (IgG1 format) (antibody, V domains shown)
# VH: EVQLLESGPGLVKPSQTLSLTCTVSGGSISSGGYYWSWIRQHPGKGLEWIGYIYYSGSTYYNPSLKSRVTISVDTSKNQFSLKLSSVTAADTAVYYCARASRSTDYYFDYWGQGTLVTVSS
# VL: QPGLTQPPSMSYGLGQTATLTCTGNRNNIGDQGAAWLQQHQGHPPKLLSYRNNNGPSGISERLSASRSGNTASLTISGLQPEDEADYYCSAWDSSLRAWVFGGGTKLTVL
# notes: human IgG1 format
# B7: A-035 (IgG1 format) (antibody, V domains shown)
# VH: QVQLVQSGAEVKKPGASVKVSCKASGYTFTGYYMHWVRQAPGQGLEWMGWINPNSGNTGYAQKFQGRVTMTRNTSISTAYMELSSLRSEDTAVYYCARGRLERGYWYFDLWGRGTLVTVSS
# VL: NFMLTQPHSVSESPGRTVTISCTRSSGSITSNYVQWYQQRPGSAPTILIYEDKERPSEVPDRFSGSIDISSNSASLTISGLKTEDEADYYCQSYGGTSQGVLFGGGTKVTVL
# notes: human IgG1 format
# B8: C-016 (IgG1 format) (antibody, V domains shown)
# VH: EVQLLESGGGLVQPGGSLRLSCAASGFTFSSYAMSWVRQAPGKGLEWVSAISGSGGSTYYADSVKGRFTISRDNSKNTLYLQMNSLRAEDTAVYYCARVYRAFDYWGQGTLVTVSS
# VL: ASVLTQPPSVSAAPGQKVTISCSGSSSNIGNNYVSWYQQLPGTAPKLLIYDNNKRPSGIPDRFSGSKSGTSATLGITGLQAEDEADYYCHLYTEAESHWVFGGGTKLTVL
# B9: C-013 (Fab format) (Fab, V domains shown)
# VH: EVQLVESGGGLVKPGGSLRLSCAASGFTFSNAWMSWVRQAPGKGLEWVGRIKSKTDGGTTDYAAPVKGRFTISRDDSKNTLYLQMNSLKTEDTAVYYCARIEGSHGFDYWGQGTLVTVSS
# VL: SYELTQPPSVSVSPGQTASITCSGDKLGDKYASWYQQKPGQSPVLVIYQDSKRPSGIPERFSGSNSGNTATLTISGTQAEDEADYYCASYLHTPKQFVFGGGTKLTVL
# notes: Fab from E. coli lysate
# B10: C-017 (IgG1 format) (antibody, V domains shown)
# VH: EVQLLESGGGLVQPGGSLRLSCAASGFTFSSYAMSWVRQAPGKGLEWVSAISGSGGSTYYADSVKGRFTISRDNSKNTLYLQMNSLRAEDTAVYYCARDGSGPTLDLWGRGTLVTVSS
# VL: DIQMTQSPSSLSASVGDRVTITCRASQSISSYLNWYQQKPGKAPKLLIYAASSLQSGVPSRFSGSGSGTDFTLTISSLQPEDFATYYCQQHRYIPPWTFGQGTKVEIK
# B11: C-027 (Fab format) (Fab, V domains shown)
# VH: QVQLVQSGAEVKKPGSSVKVSCKASGGTFSSYAISWVRQAPGQGLEWMGGIIPIFGTANYAQKFQGRVTITADESTSTAYMELSSLRSEDTAVYYCARENIPSYYDSSGRQDAFDIWGQGTMVTVSS
# VL: B9 VL with A88Q, T93K, P94S, K95H, Q96G, F97A
# notes: Fab from E. coli lysate
# Experiments:
# [1] = target: T1, human IGSF11 (VSIG3) ECD, His-tagged; assay: ELISA: IGSF11-HIS coated, IgG1 dilution series, anti-human antibody-HRP, TMB
# [2] = target: T1, human IGSF11 (VSIG3) ECD, His-tagged; assay: blocking ELISA: VSIR-Fc immobilised, IgG dilution series pre-incubated with 200 nM IGSF11 ECD-His, bound IGSF11 detected with anti-His-HRP
# [3] = target: T2, human IGSF11 (VSIG3) expressed on cells; assay: FACS, DMS 273 cells with scrambled control siRNA (SC)
# [4] = target: T2, human IGSF11 (VSIG3) expressed on cells; assay: FACS, M579-A2-luc cells with scrambled control siRNA (SC)
# [5] = target: T2, human IGSF11 (VSIG3) expressed on cells; assay: FACS, M579-A2-luc cells with IGSF11 siRNA (KD, knock-down control)
# [6] = target: T3, IgC2 domain of human IGSF11 fused to …; assay: IgG ELISA
# Experimental: (§1) Binding of IgG antibodies to each of the full-length ECD of IGSF11, to the IgV domain of IGSF11 and to the IgC2 domain of IGSF11, was tested in the ELISA assay as follows: briefly, recombinant domains of Fc-fusion IGSF11 proteins were coated at 2 ug/mL on a 384-well Maxisorp plate. The surface was blocked with 2% (w/v) skim milk powder in PBST. […] After removing all unbound antibodies by 3 wash cycles with PBST, bound IgG ABPs were detected with a goat anti-human IgG antibody conjugated with horseradish peroxidase. After three wash cycles with PBST the ELISA was developed with TMB substrate.
# [7] = target: T4, full-length ECD of human IGSF11 fused …; assay: IgG ELISA
# Experimental: as §1
# [8] = target: T2, human IGSF11 (VSIG3) expressed on cells; assay: FACS, DMS 273 cells with IGSF11 siRNA (KD, knock-down control)
# [9] = target: T2, human IGSF11 (VSIG3) expressed on cells; assay: IgG1 FACS HEK-OE
# [10] = target: T2, human IGSF11 (VSIG3) expressed on cells; assay: IgG1 FACS DMS 273
# [11] = target: T1, human IGSF11 (VSIG3) ECD, His-tagged; assay: IgG1 ELISA EC50 <0.02 nM
# [12] = target: T1, human IGSF11 (VSIG3) ECD, His-tagged; assay: IgG1 ELISA EC50 0.02-0.05 nM
# [13] = target: T5, murine IGSF11 expressed on cells; assay: IgG FACS MC38-IGSF11
# Text: (§2) Unbound antibodies were removed by washing the cells three time with FACS buffer. Bound antibodies were detected with a mouse anti-human IgG antibody conjugated with AlexaFluor647.
# [14] = target: T5, murine IGSF11 expressed on cells; assay: IgG FACS CT26-IGSF11
# Text: as §2
# [15] = target: T6, extracellular domain (ECD) of human …; assay: Fab ELISA
# Experimental: (§3) In order to identify IGSF11-specific binding ABPs, monoclonal Fabs expressed from E. coli were generated from the enriched set of anti-IGFS11 antibody-expressing phage. After bacterial lysis, the Fabs were tested for their binding properties and cross-reactivity profile on recombinant ECD-IGSF11 (human, mouse and cynomolgus monkey) by standard ELISA. Briefly, biotinylated recombinant ECD-IGSF11 from human, mouse, or cynomolgus monkey were immobilized at 2 ug/mL on a streptavidin-coated 384-well Maxisorp plate. The surface was blocked with 2% (w/v) skim milk powder in PBST. After three wash cycles with PBST, a bacterial lysate of each of the anti-IGSF11 Fabs in 2% (w/v) skim milk powder was applied to the immobilized IGSF11 and incubated for 1 h. After removing all unbound Fab by 3 wash cycles with PBST, bound Fab antibodies were detected with a goat anti-human Fab antibody conjugated with horseradish peroxidase. After three wash cycles with PBST the ELISA was developed with TMB substrate.
# Streptavidin = Streptavidin (UniProt P22629 37-163, limits assumed); assay: Fab ELISA
# Sequence of Streptavidin (P22629 37-163 limits assumed): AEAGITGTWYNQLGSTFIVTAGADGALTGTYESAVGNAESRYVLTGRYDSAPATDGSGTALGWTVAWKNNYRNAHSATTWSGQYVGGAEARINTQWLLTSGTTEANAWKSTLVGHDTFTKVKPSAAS
# Experimental: as §3
# [16] = target: T7, IgV domain of human IGSF11 fused to …; assay: IgG ELISA
# [17] = target: T4, full-length ECD of human IGSF11 fused …; assay: IgG ELISA; remark: listed apart in the source
# [18] = target: T2, human IGSF11 (VSIG3) expressed on cells; assay: IgG FACS MDA-MB-231-IGSF11
# Text: as §2
# [19] = target: T8, ECD of cynomolgus monkey IGSF11, …; assay: Fab ELISA
# Experimental: as §3
binder,measurement,setting,value
B1,EC50 (read off the curve),[1],~0.02 nM
same,IC50 (read off the curve),[2],~5 nM
B2,EC50 (read off the curve),[1],~0.02 nM
same,IC50 (read off the curve),[2],~5 nM
B3,EC50 (read off the curve),[1],~0.01 nM
same,IC50 (read off the curve),[2],~3 nM
B4,IC50 (read off the curve),[2],~4 nM
B5,% binding (FACS heat-map),[3],14.3%
same,% binding (FACS heat-map),[4],3.32%
same,% binding (FACS heat-map),[5],2.5%
same,EC50,[6],1 to 20 nM
same,EC50,[7],1 to 20 nM
same,% binding (FACS heat-map),[8],2.63%
same,EC50,[9],> 50 nM
B6,EC50,[10],10 to 50 nM
same,EC50,[11],< 0.02 nM
same,EC50,[6],< 1 nM
same,EC50,[7],< 1 nM
same,EC50,[9],10 to 50 nM
B7,EC50,[12],0.02 to 0.05 nM
same,EC50,[6],20 to 100 nM
same,EC50,[7],1 to 20 nM
same,EC50,[9],> 50 nM
B8,EC50,[13],50 to 100 nM
same,EC50,[14],20 to 50 nM
B9,A450,[15],< 1
same,A450,Streptavidin,< 0.1
B10,EC50,[13],50 to 100 nM
same,EC50,[16],1 to 20 nM
same,EC50,[17],1 to 20 nM
same,EC50,[18],15 to 25 nM
same,EC50,[14],20 to 50 nM
B11,A450,[15],< 1
same,A450,Streptavidin,< 0.1
same,A450,[19],< 1
